# Laboratory results as given in publication PMC11489063, “Study of sulfoglycolysis in Enterococcus gilvus reveals a widespread bifurcated pathway for dihydroxypropanesulfonate degradation” (iScience, 2024).
# T1: HpfX (EgHpfX), 3-sulfopropionaldehyde dehydrogenase (Enterococcus gilvus, UniProt R2XKF7)
# T1 construct: gene I592_01329
# T1 sequence (R2XKF7 1-455): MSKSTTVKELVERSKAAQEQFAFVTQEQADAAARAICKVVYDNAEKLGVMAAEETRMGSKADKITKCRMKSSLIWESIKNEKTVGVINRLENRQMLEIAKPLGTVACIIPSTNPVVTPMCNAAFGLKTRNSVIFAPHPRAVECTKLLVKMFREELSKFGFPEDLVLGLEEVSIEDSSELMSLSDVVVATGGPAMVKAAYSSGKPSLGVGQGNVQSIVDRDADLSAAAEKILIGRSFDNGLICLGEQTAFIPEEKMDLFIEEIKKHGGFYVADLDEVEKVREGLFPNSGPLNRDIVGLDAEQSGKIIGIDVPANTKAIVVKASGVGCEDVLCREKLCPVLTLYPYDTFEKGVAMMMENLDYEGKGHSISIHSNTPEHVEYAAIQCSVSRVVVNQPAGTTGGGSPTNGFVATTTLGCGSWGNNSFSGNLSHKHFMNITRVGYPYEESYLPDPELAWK
# Experiments:
# [1] = target: T1, HpfX (EgHpfX), 3-sulfopropionaldehyde dehydrogenase; test: LC-MS of product 3-SPC, HpfD-coupled; type: biochemical; settings: 3-SPA made in situ by HpfD from 40 mM 3-HPS; 4 mM NAD+, 0.5 mM CoA, CAPSO pH 9.5, RT
# [2] = target: T1, HpfX (EgHpfX), 3-sulfopropionaldehyde dehydrogenase; test: spectrophotometric NADH consumption, A340, HpfYZ-coupled; type: biochemical; settings: reduction of 3-SPC made in situ by HpfYZ; 0.4 mM NADH, 10 mM 3-SP, 2 mM ATP, 0.4 mM CoA, 10 mM MgCl2, Tris pH 7.5, RT
# [3] = test system: O=S(=O)(O)CCCO; test: purified protein; settings: apparent, oxidation direction, 4 mM NAD+, 50 mM CAPSO pH 9.5, RT
# [4] = test system: NC(=O)c1ccc[n+]([C@@H]2O[C@H](COP(=O)(O)OP(=O)(O)OC[C@H]3O[C@@H](n4cnc5c(N)ncnc54)[C@H](O)[C@@H]3O)[C@@H](O)[C@H]2O)c1; test: purified protein; settings: apparent, oxidation direction, 40 mM 3-HPS, 50 mM CAPSO pH 9.5, RT
# [5] = substrate: Nc1ncnc2c1ncn2[C@@H]1O[C@H](COP(=O)(O)OP(=O)(O)OP(=O)(O)O)[C@@H](O)[C@H]1O; test: PK-LDH coupled spectrophotometric assay, A340; type: biochemical, Enterococcus gilvus; settings: apparent, 2 mM 3-SP, 0.4 mM CoA, 10 mM MgCl2, 50 mM KCl, Tris-HCl pH 7.5, RT
# [6] = substrate: O=C(O)CCS(=O)(=O)O; test: PK-LDH coupled spectrophotometric assay, A340; type: biochemical, Enterococcus gilvus; settings: apparent, 2 mM ATP, 0.4 mM CoA, 10 mM MgCl2, 50 mM KCl, Tris-HCl pH 7.5, RT
# [7] = substrate: CC(C)(COP(=O)(O)OP(=O)(O)OC[C@H]1O[C@@H](n2cnc3c(N)ncnc32)[C@H](O)[C@@H]1OP(=O)(O)O)[C@@H](O)C(=O)NCCC(=O)NCCS; test: PK-LDH coupled spectrophotometric assay, A340; type: biochemical, Enterococcus gilvus; settings: apparent, 2 mM 3-SP, 2 mM ATP, 10 mM MgCl2, 50 mM KCl, Tris-HCl pH 7.5, RT
molecule,measurement,setting,value
O=CCCS(=O)(=O)O [3-SPA],"LC-MS of product 3-SPC, HpfD-coupled",[1],The ability of the HpfX to oxidize 3-SPA into 3-SPC was ascertained
NC(=O)C1=CN([C@@H]2O[C@H](COP(=O)(O)OP(=O)(O)OC[C@H]3O[C@@H](n4cnc5c(N)ncnc54)[C@H](O)[C@@H]3O)[C@@H](O)[C@H]2O)C=CC1 [NADH],"spectrophotometric NADH consumption, A340, HpfYZ-coupled",[2],indicating reduction of 3-SPC accompanied by the consumption of NADH
"HpfD (EgHpfD), 3-sulfopropionaldehyde reductase (Enterococcus gilvus ATCC BAA-350)",Km,[3],4970 ± 570 µM
same,kcat,[3],15.30 ± 0.37 s⁻¹
same,Km,[4],640 ± 90 µM
same,kcat,[4],20.87 ± 0.84 s⁻¹
"HpfYZ (EgHpfY / EgHpfZ), 3-sulfopropionate-CoA ligase (Enterococcus gilvus ATCC BAA-350) (protein, N-terminal His6-TEV tagged HpfY co-expressed with untagged HpfZ in E. coli BL21(DE3), co-purified 1:1 (predicted heterodimer); codon-optimized genes) chain 1: MDYLEIEGKAQLERFGIPINESILLTGDNIPEDIPYPCVLKGQILSGKRGKAGAVRVVKTRAELIEAKEIIEQIKINDQVMEGVIACGFLPIEEEYYLGMTLDVKNRAMIMLFTPFGGMDIEELAETDPEKLLRFDCTEGFNAEKFKKASTIFELPEKRLNLVVDIAEKLSEACFALDATTIEINPLALLKDESLMAIDAKLVIDDNALYRQGDYTILPRTVQEKSLQEIEAEQYDLTYVEVDPKGNIGTMAGGAGIGMATMDTVFHYGGRVNNFLDLGGGVTSEKTYQAMRILLENENTDYILINIFGGINNCADMAEGITRAYKESGISKTVVVKSRGFNQEQGWSMYKELGFPQAKYGTTDEAVQILLALKGAK chain 2: MSILINQETELLIIGITGKQGRIHAKRTIESGAKLRAGVAPGKNGEMVEGIPVFESVEDARKEFPQIRAAMLLTPPRFVKDAAIQALQSGIELLVIITEFVPVLDTLEIVTKAKKLGAKVVGPNTIGVIAPGKSKLGIMPADIYGKGRIGIISRSGTLTHETASNLTFKGYGLSTCVGIGGDSIVGMDHADVLELFANDDETDAIVLIGEIGGTSEEMAAAKIKELNIQKPICAYIAGMHAPENKKMGHAGAIVSGNMGTVKSKVEALEDAGVTVCPTLGKIVEFMEKTNSQTNGKLRSLEPKVDASILQT",Km,[5],180 ± 140 µM
same,kcat,[5],0.33 ± 0.01 s⁻¹
same,Km,[6],510 ± 70 µM
same,kcat,[6],0.38 ± 0.01 s⁻¹
same,Km,[7],110 ± 30 µM
same,kcat,[7],0.45 ± 0.04 s⁻¹
